# From PMC8017925, “Structural basis for differential recognition of phosphohistidine-containing peptides by 1-pHis and 3-pHis monoclonal antibodies” (Proceedings of the National Academy of Sciences of the …, 2021)
# B1: SC44-8: Fab of rabbit 3-pHis-specific monoclonal antibody with proclivity for GpHAGA motif (antibody, V domains shown)
# VH: QSVKESGRGLVQPGGSLTLTCTASGFSIDSYGFSWVRQAPGKGLEHIGYLTAGGRAFYASWAKSRSTITRNTNENTVTLKMTSLTAADTATYFCAKLGSGNPVAIWGPGTLVTVSS
# VL: QVLTQTPSFTSAAVGGTVTINCQSSQSVWRNKNLAWYQQKPGQPPKRLIYAIATLDSGVPSRFSGSGSGTQFTLTISDVQCDDAATYYCVGHYGSENDAYYAFGGGTEVVVK
# Target: NM23 pHis peptide
# Experiment: BLI of pHis Fabs with phosphorylated NM23 peptide
# Type: binding
# Procedure: Next, we turned to further analyze the peptide selectivity using BLI experiments. Nine amino acid peptide sequences from proteins known to undergo histidine phosphorylation were selected and synthesized (SI Appendix, Table S2). The biotinylated peptides ACLY, NM23, SCS, and Common-His were chemically phosphorylated using phosphoramidate (8 h at 23 °C), and affinity-purified using immobilized 1-pHis IgGs or 3-pHis IgGs, as described above. BLI signal intensity was used to assess peptide binding to the Fabs. SC1-1, SC50-3, SC39-4, and SC56-2 had signal intensities in 0.5 to 1 nm for the association (SI Appendix, Fig. S10), whereas SC44-8 had maximum signal (2.0 nm) with ACLYana, which has GpHAGAG motif, and a signal of 0.5 nm for ACLY and SCS peptides, which have GpHAGAC and GpHAGAI motifs, respectively. However, there was no signal with NM23 and Common-His peptides, which lack this motif (SI Appendix, Fig. S10D). […] The binding kinetics of the pHis Fabs with this set of peptides indicate that the affinity values are similar for the pHis Fabs SC50-3, SC39-4, and SC56-2, consistent with them binding in a sequence-independent manner.
# The binding kinetics of pHis Fabs with the peptides (pTza and pHis) were evaluated with an Octet RED96e (FortéBio). Streptavidin-coated biosensors (FortéBio) were presoaked in buffer containing 50 mM Hepes pH 8.0, 150 mM NaCl, 0.05% Tween-20, and 0.2% BSA for 15 min. The biotinylated pTza peptides or pHis peptides (20 nM) with and without phosphoramidate treatment were coated onto these streptavidin biosensors and analyzed for their binding to varying concentrations of the pHis Fabs with an association time of 120 s and dissociation time of 200 s. The entire set of experiments was repeated three times. The data were analyzed using the Octet software (FortéBio) and the rates of association and dissociation were obtained by global fitting data to the 1:1 Langmuir interaction model. […]
# Peptides used in the DSF and BLI experiments were synthesized by the Salk Peptide Synthesis Core. These peptides were N-terminally biotinylated and C-terminally amidated. They were synthesized using standard Fmoc chemistry on a Gyros Protein Technologies Tribute peptide synthesizer with UV monitoring. […]
# Phosphoramidation reaction. The small molecule phosphate donor phosphoramidate was used to phosphorylate the peptides containing His (Table S2). Phosphoramidate was synthesized based on Wei and Matthew’s method (2) and stored in a desiccator. 20 nanomoles of peptides were added to one micromole of the phosphoramidate in 50 mM Hepes pH 8.0 and 150 mM NaCl buffer. […]
# 1H NMR of ACLYana peptide. A mixture of 5 mM ACLYana peptide and 250 mM phosphoramidate in 20 mM d18-Hepes, pH 8.0, 50 mM NaCl in D2O was incubated at 23 °C and monitored over the course of 29 h. […]
# [1] = BLI, phosphorylated, affinity-purified NM23 peptide, Table S7
molecule,measurement,setting,value
B1,KD,"BLI, biotinylated NM23 peptide phosphorylated with phosphoramidate (8 h at 23 °C), affinity-purified on 1-pHis or 3-pHis IgGs (cognate isomer), Table S7",No binding
same,ka,[1],No binding
same,kd,[1],No binding
same,BLI signal with NM23 peptide,"phosphorylated NM23, lacks GpHAGA motif",no signal
